Measured values: patent publication US20090081200A1

Columns and labels:
[1] = biological target: full-length human tissue factor with C-terminal RGS-His6 tag, stably expressed on CHO-K1 cells (human) (UniProt P13726); assay: flow cytometry (FACScan) on stable CHO clone #TF34 expressing full-length hTF; first antibody 10 µg/ml, FITC-labeled goat anti-mouse IgG 1:50
[2] = biological target: full-length human tissue factor with C-terminal RGS-His6 tag, stably expressed on CHO-K1 cells (human) (UniProt P13726); assay: flow cytometry (FACScan) on stable CHO clone #TF48 expressing full-length hTF; first antibody 10 µg/ml, FITC-labeled goat anti-mouse IgG 1:50

Sequence of full-length human tissue factor with C-terminal RGS-His6 tag, stably expressed on CHO-K1 cells (human) (P13726 other isoform, or with tags, fused parts or gaps): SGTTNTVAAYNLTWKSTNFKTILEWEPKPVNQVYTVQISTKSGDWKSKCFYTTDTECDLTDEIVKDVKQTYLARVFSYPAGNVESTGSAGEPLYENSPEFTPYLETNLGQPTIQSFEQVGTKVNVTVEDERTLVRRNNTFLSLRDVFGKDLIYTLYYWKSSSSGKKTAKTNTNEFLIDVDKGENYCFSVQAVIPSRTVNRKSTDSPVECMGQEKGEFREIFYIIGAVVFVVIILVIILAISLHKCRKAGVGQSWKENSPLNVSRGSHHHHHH

With “mouse anti-human TF mAb (Calbiochem, Cat. # 612161) (antibody)” the % Total in marker M1 (negative gate) [1] was 0.42%, the % Total in marker M2 (positive gate) [1] was 99.4% and the Geo Mean (FL1-H), marker All [1] was 262. It also gave a Geo Mean (FL1-H), marker M1 [1] of 8.16, a Geo Mean (FL1-H), marker M2 [1] of 267 and a % Total in marker M1 (negative gate) [2] of 0.99%. It also gave a % Total in marker M2 (positive gate) [2] of 98.9%, a Geo Mean (FL1-H), marker All [2] of 168 and a Geo Mean (FL1-H), marker M1 [2] of 7.54. For the same substance, the Geo Mean (FL1-H), marker M2 [2] was 174.
